From patent US20250026846A1 (JCR PHARMACEUTICALS, published 2025)

Experiments:
[1] = target: T1, recombinant monkey TfR (r monkey TfR: Sino Biological Inc.), crab-eating monkey TfR extracellular region with … (crab-eating monkey (Macaca fascicularis)); assay: BLI (Octet RED96), His-tagged TfR ECD on Ni-NTA sensor
T1 construct: Bought from Sino Biological; also called r monkey TfR-ECD (Histag); not shown: histidine tag at the N-terminus
T1 chain: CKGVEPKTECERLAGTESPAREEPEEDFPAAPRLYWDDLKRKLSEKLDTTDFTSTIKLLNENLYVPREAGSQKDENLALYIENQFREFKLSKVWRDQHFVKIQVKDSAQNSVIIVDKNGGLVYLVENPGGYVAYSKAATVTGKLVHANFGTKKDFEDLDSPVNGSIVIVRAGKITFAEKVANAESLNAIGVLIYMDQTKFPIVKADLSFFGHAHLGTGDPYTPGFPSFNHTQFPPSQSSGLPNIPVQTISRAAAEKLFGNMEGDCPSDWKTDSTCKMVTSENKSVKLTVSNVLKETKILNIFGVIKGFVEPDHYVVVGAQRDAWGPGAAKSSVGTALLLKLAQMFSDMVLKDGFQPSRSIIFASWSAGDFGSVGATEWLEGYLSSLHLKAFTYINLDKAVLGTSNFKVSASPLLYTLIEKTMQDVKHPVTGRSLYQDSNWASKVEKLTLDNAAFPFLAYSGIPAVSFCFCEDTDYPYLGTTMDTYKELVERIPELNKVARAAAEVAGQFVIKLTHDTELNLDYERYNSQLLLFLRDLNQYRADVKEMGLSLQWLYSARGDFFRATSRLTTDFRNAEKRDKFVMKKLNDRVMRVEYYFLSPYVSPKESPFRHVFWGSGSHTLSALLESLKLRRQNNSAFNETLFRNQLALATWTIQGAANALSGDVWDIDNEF

[2] = target: T2, recombinant human TfR (r human TfR: Sino Biological Inc.), hTfR extracellular region with a histidine tag at … (human, UniProt P02786 89-760); assay: as above
T2 construct: Bought from Sino Biological; also called r human TfR-ECD (Histag); recombinant hTfR; not shown: histidine tag at the N-terminus

Row | Binder | Kd [1] | koff [1] | kon [1] | Kd [2] | koff [2] | kon [2]
1 | Fab GS3-GUSB (other, also called Fab HC-GS3-GUSB) light: DIVMTQTPLSLSVTPGQPASISCRSSQSLVHSNGNTYLHWYLQKPGQSPQLLIYKVSNRFSGVPDRFSGSGSGTDFTLKISRVEAEDVGVYYCSQSTHVPWTFGQGTKVEIKRTVAAPSVFIFPPSDEQLKSGTASVVCLLNNFYPREAKVQWKVDNALQSGNSQESVTEQDSKDSTYSLSSTLTLSKADYEKHKVYACEVTHQGLSSPVTKSFNRGEC heavy: EVQLVQSGAEVKKPGESLKISCKGSGYSFMNYWLGWVRQMPGKGLEWMGDIYPGGDYPTYSEKFKVQVTISADKSISTAYLQLSSLKASDTAMYYCARSGNYDEVAYWGQGTLVTVSSASTKGPSVFPLAPSSKSTSGGTAALGCLVKDYFPEPVTVSWNSGALTSGVHTFPAVLQSSGLYSLSSVVTVPSSSLGTQTYICNVNHKPSNTKVDKKVEPKSCDKTHTGGGGSGGGGSGGGGSLQGGMLYPQESPSRECKELDGLWSFRADFSDNRRRGFEEQWYRRPLWESGPTVDMPVPSSFNDISQDWRLRHFVGWVWYEREVILPERWTQDLRTRVVLRIGSAHSYAIVWVNGVDTLEHEGGYLPFEADISNLVQVGPLPSRLRITIAINNTLTPTTLPPGTIQYLTDTSKYPKGYFVQNTYFDFFNYAGLQRSVLLYTTPTTYIDDITVTTSVEQDSGLVNYQISVKGSNLFKLEVRLLDAENKVVANGTGTQGQLKVPGVSLWWPYLMHERPAYLYSLEVQLTAQTSLGPVSDFYTLPVGIRTVAVTKSQFLINGKPFYFHGVNKHEDADIRGKGFDWPLLVKDFNLLRWLGANAFRTSHYPYAEEVMQMCDRYGIVVIDECPGVGLALPQFFNNVSLHHHMQVMEEVVRRDKNHPAVVMWSVANEPASHLESAGYYLKMVIAHTKSLDPSRPVTFVSNSNYAADKGAPYVDVICLNSYYSWYHDYGHLELIQLQLATQFENWYKKYQKPIIQSEYGAETIAGFHQDPPLMFTEEYQKSLLEQYHLGLDQKRRKYVVGELIWNFADFMTEQSPTRVLGNKKGIFTRQRQPKSAAFLLRERYWKIANETRYPHSVAKSQCLENSLFT | < 0.001 nM | < 1e-07 s⁻¹ | 250000 M⁻¹ s⁻¹ | < 0.001 nM | < 1e-07 s⁻¹ | 449000 M⁻¹ s⁻¹
2 | Fab GS3-GALC (other, also called Fab HC-GS3-GALC) light: DIVMTQTPLSLSVTPGQPASISCRSSQSLVHSNGNTYLHWYLQKPGQSPQLLIYKVSNRFSGVPDRFSGSGSGTDFTLKISRVEAEDVGVYYCSQSTHVPWTFGQGTKVEIKRTVAAPSVFIFPPSDEQLKSGTASVVCLLNNFYPREAKVQWKVDNALQSGNSQESVTEQDSKDSTYSLSSTLTLSKADYEKHKVYACEVTHQGLSSPVTKSFNRGEC heavy: EVQLVQSGAEVKKPGESLKISCKGSGYSFMNYWLGWVRQMPGKGLEWMGDIYPGGDYPTYSEKFKVQVTISADKSISTAYLQLSSLKASDTAMYYCARSGNYDEVAYWGQGTLVTVSSASTKGPSVFPLAPSSKSTSGGTAALGCLVKDYFPEPVTVSWNSGALTSGVHTFPAVLQSSGLYSLSSVVTVPSSSLGTQTYICNVNHKPSNTKVDKKVEPKSCDKTHTGGGGSGGGGSGGGGSYVLDDSDGLGREFDGIGAVSGGGATSRLLVNYPEPYRSQILDYLFKPNFGASLHILKVEIGGDGQTTDGTEPSHMHYALDENYFRGYEWWLMKEAKKRNPNITLIGLPWSFPGWLGKGFDWPYVNLQLTAYYVVTWIVGAKRYHDLDIDYIGIWNERSYNANYIKILRKMLNYQGLQRVKIIASDNLWESISASMLLDAELFKVVDVIGAHYPGTHSAKDAKLTGKKLWSSEDFSTLNSDMGAGCWGRILNQNYINGYMTSTIAWNLVASYYEQLPYGRCGLMTAQEPWSGHYVVESPVWVSAHTTQFTQPGWYYLKTVGHLEKGGSYVALTDGLGNLTIIIETMSHKHSKCIRPFLPYFNVSQQFATFVLKGSFSEIPELQVWYTKLGKTSERFLFKQLDSLWLLDSDGSFTLSLHEDELFTLTTLTTGRKGSYPLPPKSQPFPSTYKDDFNVDYPFFSEAPNFADQTGVFEYFTNIEDPGEHHFTLRQVLNQRPITWAADASNTISIIGDYNWTNLTIKCDVYIETPDTGGVFIAGRVNKGGILIRSARGIFFWIFANGSYRVTGDLAGWIIYALGRVEVTAKKWYTLTLTIKGHFTSGMLNDKSLWTDIPVNFPKNGWAAIGTHSFEFAQFDNFLVEATR | 1.4 nM | 0.000154 s⁻¹ | 111000 M⁻¹ s⁻¹ | < 0.001 nM | < 1e-07 s⁻¹ | 224000 M⁻¹ s⁻¹
3 | Fab GS3-AC (other, also called Fab HC-GS3-AC) light: DIVMTQTPLSLSVTPGQPASISCRSSQSLVHSNGNTYLHWYLQKPGQSPQLLIYKVSNRFSGVPDRFSGSGSGTDFTLKISRVEAEDVGVYYCSQSTHVPWTFGQGTKVEIKRTVAAPSVFIFPPSDEQLKSGTASVVCLLNNFYPREAKVQWKVDNALQSGNSQESVTEQDSKDSTYSLSSTLTLSKADYEKHKVYACEVTHQGLSSPVTKSFNRGEC heavy: EVQLVQSGAEVKKPGESLKISCKGSGYSFMNYWLGWVRQMPGKGLEWMGDIYPGGDYPTYSEKFKVQVTISADKSISTAYLQLSSLKASDTAMYYCARSGNYDEVAYWGQGTLVTVSSASTKGPSVFPLAPSSKSTSGGTAALGCLVKDYFPEPVTVSWNSGALTSGVHTFPAVLQSSGLYSLSSVVTVPSSSLGTQTYICNVNHKPSNTKVDKKVEPKSCDKTHTGGGGSGGGGSGGGGSQHAPPWTEDCRKSTYPPSGPTYRGAVPWYTINLDLPPYKRWHELMLDKAPVLKVIVNSLKNMINTFVPSGKIMQVVDEKLPGLLGNFPGPFEEEMKGIAAVTDIPLGEIISFNIFYELFTICTSIVAEDKKGHLIHGRNMDFGVFLGWNINNDTWVITEQLKPLTVNLDFQRNNKTVFKASSFAGYVGMLTGFKPGLFSLTLNERFSINGGYLGILEWILGKKDVMWIGFLTRTVLENSTSYEEAKNLLTKTKILAPAYFILGGNQSGEGCVITRDRKESLDVYELDAKQGRWYVVQTNYDRWKHPFFLDDRRTPAKMCLNRTSQENISFETMYDVLSTKPVLNKLTVYTTLIDVTKGQFETYLRDCPDPCIGW | ~11.8 nM | ~0.00327 s⁻¹ | 277000 M⁻¹ s⁻¹ | 0.209 nM | 0.000105 s⁻¹ | 501000 M⁻¹ s⁻¹
4 | Fab GS3-FUCA1 (other, also called Fab HC-GS3-FUCA1) light: DIVMTQTPLSLSVTPGQPASISCRSSQSLVHSNGNTYLHWYLQKPGQSPQLLIYKVSNRFSGVPDRFSGSGSGTDFTLKISRVEAEDVGVYYCSQSTHVPWTFGQGTKVEIKRTVAAPSVFIFPPSDEQLKSGTASVVCLLNNFYPREAKVQWKVDNALQSGNSQESVTEQDSKDSTYSLSSTLTLSKADYEKHKVYACEVTHQGLSSPVTKSFNRGEC heavy: EVQLVQSGAEVKKPGESLKISCKGSGYSFMNYWLGWVRQMPGKGLEWMGDIYPGGDYPTYSEKFKVQVTISADKSISTAYLQLSSLKASDTAMYYCARSGNYDEVAYWGQGTLVTVSSASTKGPSVFPLAPSSKSTSGGTAALGCLVKDYFPEPVTVSWNSGALTSGVHTFPAVLQSSGLYSLSSVVTVPSSSLGTQTYICNVNHKPSNTKVDKKVEPKSCDKTHTGGGGSGGGGSGGGGSQPPRRYTPDWPSLDSRPLPAWFDEAKFGVFIHWGVFSVPAWGSEWFWWHWQGEGRPQYQRFMRDNYPPGFSYADFGPQFTARFFHPEEWADLFQAAGAKYVVLTTKHHEGFTNWPSPVSWNWNSKDVGPHRDLVGELGTALRKRNIRYGLYHSLLEWFHPLYLLDKKNGFKTQHFVSAKTMPELYDLVNSYKPDLIWSDGEWECPDTYWNSTNFLSWLYNDSPVKDEVVVNDRWGQNCSCHHGGYYNCEDKFKPQSLPDHKWEMCTSIDKFSWGYRRDMALSDVTEESEIISELVQTVSLGGNYLLNIGPTKDGLIVPIFQERLLAVGKWLSINGEAIYASKPWRVQWEKNTTSVWYTSKGSAVYAIFLHWPENGVLNLESPITTSTTKITMLGIQGDLKWSTDPDKGLFISLPQLPPSAVPAEFAWTIKLTGVK | 0.323 nM | 4.88e-05 s⁻¹ | 151000 M⁻¹ s⁻¹ | < 0.001 nM | < 1e-07 s⁻¹ | 282000 M⁻¹ s⁻¹
